According to US20250136687A1 (SHANDONG SIMCERE BIOPHARMACEUTICAL, published 2025):
Residue numbers refer to the chain shown, from its start.

B1: 5-40.21 murine hybridoma antibody (supernatant) (antibody, V domains shown)
VH: QVQLQQPGSELVRPGASVKLSCKASGYTFTSYWMHWVKQRPGQGLEWIGNTYPGSGSTNYDEKFKSKATLTVDSSSSTAYMQLSSLTSEDSAVYYCTRDRYGVYYFDYWGQGTTLTVSS
VL: DIVMSQSPSSLAVSAGEKVTMSCKSSQSLLNSRTRKNYLAWYQQKPGQSPKLLIYWASTRESGVPDRFSGSGSGTDFTLTISSVQAEDLAVYYCTQSYNLRTFGGGTKLEIK
notes: Tested as hybridoma supernatant
B2: 6-44.5 murine hybridoma antibody (supernatant) (antibody, V domains shown)
VH: EVQLQQSGPELVKPGASVKMSCKASGHTFTSHIMHWVKQKPGQGLEWIGYINPNNDRTEYSEKFKGKATLTSDKSSSTAYMELSSLTSEDSAVYYCAGEAYYSNSLYAMDYWGQGTSVTVSS
VL: B1 VL with L30F, K51E, D66V, S69T, T95K, N99Y, I111V
notes: as for B1
B3: 5-7.13 murine hybridoma antibody (supernatant) (antibody, V domains shown)
VH: QVQLQQPGTELVKPGASVKLSCKASGYTFTSYWVHWVKQRPGQGLEWIGNINPSDGVTNYNEKFKSRATLTVDKSSSTAYMQLSSLTSEDSAVYYCTRDAYGQYYFDDWGQGTTLTVSS
VL: B1 VL with A12V, T59V, E61D, S69T, S83N, T95I, N99Y, K108I
notes: as for B1
B4: 6-35.22 murine hybridoma antibody (supernatant) (antibody, V domains shown)
VH: EVKLVESGGGLVQPGASLSLSCAASGFTFTDYYMSWVRQPPGKALEWLAMSRNKAKGHTIEYSSSVKGRFTISRDNSQSILYLQMNALRAEDSATYYCARDTYESYDGYFDVWGAGTTVIVSS
VL: B1 VL with K18T, L30F, T34S, S49T, T59I, S69T, T95K, N99Y, R101Y, G105S
notes: as for B1
B5: 1-22.6 murine hybridoma antibody (supernatant) (antibody, V domains shown)
VH: QIPLVQSGPELKKPGETVKISCKTSGYTFTSYGMSWVKQAPGKGLKWMGWINTYSGVPTYADDFKGRFVFSLDTSASTAFLQINNLKNEDTATYFCARLKNNPFCWGQGSTLTVFS
VL: DVLMTQSPLSLPVRLGDQASISCRSSQLILHSNGNTYLEWYLQKPGQSPKLLIYKVSNRFSGVPDRFSGSGSGTDFTLKISRVEAEDLGVYYCFQGSHFPWTFGGGTKLEIK
notes: as for B1
B6: 8-18.1 murine hybridoma antibody (supernatant) (antibody, V domains shown)
VH: QVQLQQSGAELARPGASVKMSCKASGYIFTMNTMHWVKQRPGQGLEWIGYINPYSGYTKYNQIFKDKATLTADKSSSTAYMRLSSLTSEDSAVYYCLRGGEGVWGQGTTLTVSS
VL: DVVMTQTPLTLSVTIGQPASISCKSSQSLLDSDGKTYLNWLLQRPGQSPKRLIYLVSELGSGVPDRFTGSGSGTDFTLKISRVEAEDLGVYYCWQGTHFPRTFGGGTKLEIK
notes: as for B1
B7: 7-35.6 murine hybridoma antibody (supernatant) (antibody, V domains shown)
VH: EVQLVESGGGLVQPKGSLKLSCAASGFTFNTYAMNWVRQAPGKGLEWVGRIRSKINNYATYYGDSVKDRFTISRDDSQSMFYLQMNNLKTEDTAMYYCVIHENYGSISWFAYWGQGTLVTVSA
VL: QAVVTQESTLTTSPGETVTLTCRSSTGAVTTSNYANWVQEKPDHLFTGLIGGTNNRAPGVPARFSGSLIGDKAALTITGAQTEDEAIYFCALWYSNHWVFGGGTKLTVL
notes: as for B1

These binders were tested against T1, human CD3 on the cell surface (Jurkat cells, expanded human T cells, Jurkat-Lucia NFAT cells, human PBMC) (human, UniProt P07766 23-207; P04234 22-171; P09693 23-182) (assay: FACS, Jurkat cells, hybridoma screening).
T1 construct: whole, on cells; Endogenous CD3 within the TCR-CD3 complex on cells (also zeta chains and TCR); the cell type is named under assay
Protocol: (§1) Suspension cells Jurkat cells (purchased from Cell bank of Chinese Academy of Sciences) were scale-up cultured in T-175 cell culture flasks to the logarithmic growth phase, the supernatant of the medium was discarded by centrifugation, and the cell pellet was washed 2 times with PBS. After counting the cells in the previous step, the cell pellet was resuspended with [PBS+2% (w/v) FBS] blocking solution to 4×10⁶ cells/ml, and added to a 96-well FACS reaction plate at 50 μl/well, the supernatant was removed by centrifugation, detection antibodies (initial concentration of […], gradient dilution at 1:5) and an IgG negative control were added at 100 μl/well, the cells were uniformly mixed, and incubated on ice for 1 h. The cells were centrifuged and washed 3 times with a PBS buffer. […] The cells were centrifuged and washed 5 times with a PBS buffer, and FACS (FACS Canto II, purchased from BD Company) was used for detection and result analysis. Data analysis was performed by software (CellQuest) to obtain the mean fluorescence intensity (MFI) of the cells. And then software (GraphPad Prism8) was used for analysis, data fitting, and EC50 value calculation.
(§2) The binding of the supernatant of the hybridoma to human CD3ε/δ-His (purchased from Sino Biological, Inc. (China), catalog number: CT038-H2508H) and monkey CD3ε/δ-His (purchased from Acrobiosystems, CDD-C52W4) was detected by ELISA for the screening of the supernatant of the hybridoma (see Example 10.1 below). The binding of the supernatant of the ELISA positive hybridoma clone to Jurkat cells and monkey T cells was detected by flow cytometry, and the activation of Jurkat-Lucia NFAT cells (purchased from InvivoGen, catalog number: jktl-nfat) by the supernatant of the hybridoma was detected by a reporter gene system (see Example 2.1, Example 2.4 and Example 7.1 below for the method).

T1 sequence (P07766 23-207, chain 1 of 3): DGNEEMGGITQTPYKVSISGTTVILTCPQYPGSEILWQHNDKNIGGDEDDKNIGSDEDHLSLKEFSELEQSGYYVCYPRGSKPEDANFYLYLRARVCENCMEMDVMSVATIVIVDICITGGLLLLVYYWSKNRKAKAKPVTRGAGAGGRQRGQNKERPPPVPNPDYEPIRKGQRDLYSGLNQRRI
T1 sequence (P04234 22-171, chain 2 of 3): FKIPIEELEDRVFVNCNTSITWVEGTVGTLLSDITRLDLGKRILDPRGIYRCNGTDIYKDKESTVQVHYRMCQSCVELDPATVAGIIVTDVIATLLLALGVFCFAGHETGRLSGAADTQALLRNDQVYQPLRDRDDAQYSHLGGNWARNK
T1 sequence (P09693 23-182, chain 3 of 3): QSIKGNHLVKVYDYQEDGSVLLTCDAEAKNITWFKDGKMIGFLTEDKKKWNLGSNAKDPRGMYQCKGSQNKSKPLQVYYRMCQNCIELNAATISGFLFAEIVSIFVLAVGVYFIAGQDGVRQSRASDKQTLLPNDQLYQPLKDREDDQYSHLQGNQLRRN

| Binder | Mean fluorescence intensity [MFI] |
| --- | --- |
| B1 | 6910 |
| B2 | 7240 |
| B3 | 8280 |
| B4 | 7050 |
| B5 | 767 |
| B6 | 895 |
| B7 | 284 |

Each binder was assayed against T2, cynomolgus monkey CD3 on the surface of expanded monkey T cells (cynomolgus monkey, UniProt Q95LI5 22-198; Q95LI8 22-171; Q95LI7 23-181) (assay: FACS, monkey T cells, hybridoma screening).
T2 construct: whole, on cells; Endogenous CD3 within the TCR-CD3 complex on T cells expanded from cynomolgus monkey PBMC
Protocol: as §1, §2

T2 sequence (Q95LI5 22-198, chain 1 of 3): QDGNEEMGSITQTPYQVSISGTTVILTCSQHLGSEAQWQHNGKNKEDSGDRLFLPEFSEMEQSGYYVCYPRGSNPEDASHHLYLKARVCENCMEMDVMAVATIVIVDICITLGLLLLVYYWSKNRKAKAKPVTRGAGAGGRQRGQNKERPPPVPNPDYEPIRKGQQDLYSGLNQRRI
T2 sequence (Q95LI8 22-171, chain 2 of 3): as the sequence (P04234 22-171, chain 2 of 3) above, with I5V, N15K, I20V, S32T, D33N, I34N, T64A, S74N, V83L, H141R counted along it
T2 sequence (Q95LI7 23-181, chain 3 of 3): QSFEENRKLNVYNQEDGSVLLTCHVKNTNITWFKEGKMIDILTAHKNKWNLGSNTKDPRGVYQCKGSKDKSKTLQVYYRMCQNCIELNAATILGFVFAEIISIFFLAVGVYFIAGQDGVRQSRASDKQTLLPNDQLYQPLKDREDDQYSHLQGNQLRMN

| Binder | Mean fluorescence intensity [MFI] |
| --- | --- |
| B1 | 15200 |
| B2 | 36200 |
| B3 | 16300 |
| B4 | 32600 |
| B5 | 20800 |
| B6 | 3100 |
| B7 | 1650 |

These binders were tested against T1, human CD3 on the cell surface (Jurkat …) (assay: cell-based or functional assay).

| Binder | Reporter assay (RLU), Jurkat-Lucia NFAT, supernatant diluted by 4 times [RLU] | Reporter assay (RLU), Jurkat-Lucia NFAT, supernatant diluted by 20 times [RLU] |
| --- | --- | --- |
| B1 | 18900 | 15600 |
| B2 | 26200 | 21400 |
| B3 | 24500 | 27800 |
| B4 | 29000 | 34100 |
| B5 | 16000 | 8890 |
| B6 | 27000 | 17800 |
| B7 | 27400 | 14800 |

Each binder was assayed against T3, monkey CD3ε/δ-His (monkey, UniProt Q95LI5 22-117; Q95LI8 22-105) (assay: ELISA, coated antigen, hybridoma screening).
T3 construct: Bought recombinant heterodimer with His tag
Text: as §2
(§3) To detect the binding activity of the humanized antibodies to CD3 protein, CD3 protein was diluted with PBS to the final concentration of […], then added to a 96-well ELISA plate at 50 μL/well, and the plate was sealed with a plastic film, and incubated overnight at 4° C. On the next day, the plate was washed 2 times with PBS, and a blocking solution [PBS+2% (v/v) BSA] was added for blocking at room temperature for 2 h. The blocking solution was poured off, and the antibody (initial concentration of 100 nM, and gradient dilution at 1:10) or a negative control antibody was added at 50 µl/well. After incubation at 37° C. for 2 h, the plate was washed 3 times with PBS. […] TMB substrate was added at 50 μl/well, and incubated at room temperature for 10 min, and then a stop solution (1.0 N HCl) was added at 50 μl/well. The OD450 nm values were read by an ELISA microplate reader (Multimode Plate Reader, EnSight, purchased from Perkin Elmer).

T3 sequence (Q95LI5 22-117, stated change not applied, form in doubt, chain 1 of 2): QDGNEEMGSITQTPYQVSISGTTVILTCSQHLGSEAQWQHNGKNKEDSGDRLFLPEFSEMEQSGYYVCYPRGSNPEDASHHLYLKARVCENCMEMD
T3 sequence (Q95LI8 22-105, stated change not applied, form in doubt, chain 2 of 2): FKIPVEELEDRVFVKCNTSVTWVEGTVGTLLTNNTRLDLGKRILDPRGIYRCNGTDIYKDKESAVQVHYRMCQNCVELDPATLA

| Binder | OD450 [OD450] |
| --- | --- |
| B1 | 1.82 |
| B2 | 1.94 |
| B3 | 2.09 |
| B4 | 1.74 |
| B5 | 3.08 |
| B6 | 2.14 |
| B7 | 1.46 |

Each binder was assayed against T4, human CD3ε/δ-His (human, UniProt P07766 23-126; P04234 22-105) (assay: ELISA, coated antigen, hybridoma screening).
T4 construct: Bought recombinant heterodimer with His tag; also called human CD3ε/δ protein
Text: as §2, §3

T4 sequence (P07766 23-126, stated change not applied, form in doubt, chain 1 of 2): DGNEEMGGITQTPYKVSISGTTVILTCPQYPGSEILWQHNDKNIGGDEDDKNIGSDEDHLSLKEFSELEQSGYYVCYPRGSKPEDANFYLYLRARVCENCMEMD
T4 sequence (P04234 22-105, stated change not applied, form in doubt, chain 2 of 2): as the sequence (Q95LI8 22-105, stated change not applied, form in doubt, chain 2 of 2) above, with V5I, K15N, V20I, T32S, N33D, N34I, A64T, N74S, L83V counted along it

| Binder | OD450 [OD450] |
| --- | --- |
| B1 | 2.15 |
| B2 | 2.06 |
| B3 | 2.08 |
| B4 | 2.01 |
| B5 | 2.17 |
| B6 | 2.04 |
| B7 | 1.56 |
